Data taken from the nanobody polyreactivity screen of Harvey et al. (2022).

Assay: yeast display, Sf9 membrane polyspecificity reagent, FACS + sequencing; frameworks hold sequencing errors
Outline: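 Synthetic nanobody libraries on Saccharomyces cerevisiae BJ5465 were galactose-induced for 36–48 hours, stained 1 hour at 4 °C with 10% biotinylated, detergent-solubilized Sf9 membrane reagent and enriched on streptavidin microbeads. FACS then separated cells into low and high (top ~1%) gates by anti-HA (expression) and streptavidin (reagent binding) fluorescence. Genes were colony-PCR amplified, MiSeq 2 × 250 sequenced and CDR-length filtered. A clone's polyreactivity label is that of its gate of origin.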

Row | Sequence | polyreactivity (PSR sort gate)
1 | QVQLVESGGGLVQAGGSLRLSCAASGSIFGPNAMRWYRQAPGKERELVAAINGGTGTFYADSLKGRFTISRDNAKNTVYLQMNSLKPEDTAVYYCAADYGTHYFVRYYYWGQGTQVTVSS | high polyreactivity
2 | QVQLVESGGGLVQAGGSLRLSCSASGITFNANAMGWYRQATGKERELVAAISLSGGRTYYADSVKGRFTISRDNAKNTVYLQMNSLKPEDTAVYYCKVLGNYYGKFDYWGQGTQVTVSS | high polyreactivity
3 | QVQLVESGGGLVQAGGSLRLSCAASGFIFPWYTMGWYRQAPGKERELVAVINQSGGSTYYADSVKGRFTISRDNAKNTVYLQMNSLKPEDTAVYYCAAKSYRGSVKLRWSERGYWGQGTQVTVSS | high polyreactivity
4 | QVQLVESGGGLVQAGGSLRLSCAASGFTFNFYTMGWYRQAPGKERELVAAITWSGGSTYYADSVKGRFTISRDNAKNTVYLQLNSLKPEDTAVYYCAATQQSRDRRFNYWGQGTQVTVSS | high polyreactivity
5 | QVQLVESGGGLVQAGGSLRLSCAASGRTFGTNTMGWYRPAPGKERELVAAISRSGVRTYYADSVKGRFTISRDNAKNTVYLQMKSLKPEDTAVYYCATDYKVHGFDYWGQGTQVTVSS | high polyreactivity
6 | QDQLVESRGGLVQAGGSLRLTCAASGSTFVIYDMGWYSQATGKERELVAVITIIGGSTYYADSVKGRFTISRDNAKNTVYLQMNSLKPEDTAVYYCNANVIQDYPNYDYWGQGTQVSVSS | low polyreactivity
7 | LVQLVESGGGLVQAGGSLRLSCAASGFIFGYYAMGWYRQAPGKERELVAASTRSGGSTRYADSVKGRFTISRDKAKNTVYLQMNSLKPEDSAVYYCAADSCPINLYEDYWGQGTQVTVSS | high polyreactivity
8 | QVQLVESVGGLVQAGGSLRLSCAASGSIFLQYTMGWYRQAPGKERELVAAITESDGSTYYADSVKGRFTISRDNAKNTVYLQMNSLKPEDTAVYYCAADVVYFKYWDKYDYWGQGTQVTVSS | low polyreactivity
9 | QVQLVESGGGLVQAGGSLRLSCAASGRILYYYVMGWYRPAPGKEREFVAAISSSASNTYYADSVKGRITISRDNAKNTVEFQMNSLKPEDTAVYYCAADTLWLDWQGYDYWGQGTQVTVSS | low polyreactivity
10 | QVQLVESGGGLVQAGGSLRLSCAASGRISRRNAMGWYRQAPGKEREFVATITSSGGCTYYADSVKGRFTISRDNAKNTVYLQMNSLKPEDTAVYYCAARVRGRYTEDYWGQGTQVTVSS | high polyreactivity
11 | QVQLVESGGGLVQEGGSLRLSCAASGLIFYDNMGWYRQAPGKERELVAAISSSGGSTSYADSVKGRFTISRDNAKNTVYLQMNSLKPEDTAVYYCAADSYPAYLGFVGFDYWGQGTQVTVSS | low polyreactivity
12 | QVQLVESGGGLVQAGGSLRLSCAASGSTFIYNAMGWYRQAPGKERELVAAITWNGGSTYYADSVKGRFTISRDNAKNTVYLQMNSLKPEDTAVYYCAVDKGSQPHYDYWGQGTQVTVSS | low polyreactivity
13 | QVQLVESGGGLVQAGGSLRLSCAASGSTFIQYAMGWYRQAPGKERELVATIRWIGGSTYYADSVKGRFTISRDNAKNTVYLQMNSLKPEDTAVYYCAAGYEYVENGVDWYEYDYWGQGTQVTVSS | low polyreactivity
14 | QVQLVESGGGLVQAGGSLRLSCAASGSTFTTNAMGWDRQAPGKERELVAAITWSVGSTYYADSVKGRFTISRDYAKNTVYLQMNSVKPEDNAVYYCAAYHPPGDTYEYWGQGTQVTVSS | low polyreactivity
15 | QVQLVDSGGGLVQAGGSLRLSCAASGFIFLNNAMGWYRQAPGKERELVAAITWSGGSTYYADSVKGRFTISRDNAKNTVYLQMNSLKPEDTAVYYCAADGWLYYGVGYWGQGTQVTVSS | low polyreactivity
16 | QVQLVESGGGLVQAGGSLRLSCAASGRISPNNAMGWYRQAPGKERELVAAITASGGTTYYADSVKGRFTISRDNAKNTVYLQMNSLKPEDTAVYYCAAAVWYRGWYRYDYWGQGTQVTVSS | low polyreactivity
17 | QVQLVESGGGLVQAGGSLRLSCASSGRTFYRYAMGWYRQAPGKERELVASITRRGGSTYYADSVKGRFTISRDNAKNTVYLQMNSLKPEDTAVYYCAKHSWPLDGGDYWGQGTQVTVSS | low polyreactivity
